From patent publication US8529881B2, “Peptides for active anti-cytokine immunization” (Vaxconsulting, priority 2002, dated 2013)
Where “and” joins values, the source holds several entries; their conditions need not be identical. Equal entries are not always repeated. Positions of bridges follow the written chain, without caps; N, C: chain ends. No end group written: not given here.

Experiments:
[1] = molecular target: human IL10 (native cytokine) (Homo sapiens, UniProt P22301); test: ELISA of serum from immunized mice with native IL10; format: in vivo; settings: serum day 60
Chain of human IL10 (native cytokine) (P22301 19-178): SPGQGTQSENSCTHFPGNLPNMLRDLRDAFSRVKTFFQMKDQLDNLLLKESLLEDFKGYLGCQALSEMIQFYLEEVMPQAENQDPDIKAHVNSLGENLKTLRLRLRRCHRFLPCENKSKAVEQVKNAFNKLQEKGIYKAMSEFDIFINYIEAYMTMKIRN

[2] = molecular target: T1, human TGFβ2 (native cytokine) (Homo sapiens, UniProt P61812); test: ELISA of serum from immunized mice with native TGFβ2; format: in vivo; settings: serum day 60
T1 sequence (P61812 303-414 limits assumed): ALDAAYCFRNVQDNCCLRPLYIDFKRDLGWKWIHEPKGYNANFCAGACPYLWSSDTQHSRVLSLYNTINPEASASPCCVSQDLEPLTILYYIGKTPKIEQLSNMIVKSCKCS

[3] = molecular target: human IL12p40 (native cytokine) (Homo sapiens, UniProt P29460); settings: in vivo
Chain of human IL12p40 (native cytokine) (P29460 23-328): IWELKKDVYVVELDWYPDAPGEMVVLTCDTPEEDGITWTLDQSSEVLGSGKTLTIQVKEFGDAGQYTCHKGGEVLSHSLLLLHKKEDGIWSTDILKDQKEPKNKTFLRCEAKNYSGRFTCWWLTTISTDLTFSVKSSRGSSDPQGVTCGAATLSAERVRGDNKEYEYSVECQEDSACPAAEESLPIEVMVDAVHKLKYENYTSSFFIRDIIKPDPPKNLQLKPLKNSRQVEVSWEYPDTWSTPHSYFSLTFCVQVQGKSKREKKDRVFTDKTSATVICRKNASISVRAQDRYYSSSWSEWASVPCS

[4] = molecular target: T2, human IP10 (native cytokine) (Homo sapiens, UniProt P02778); test: ELISA of serum from immunized mice with native IP10; format: in vivo; settings: serum day 60
T2 sequence (P02778 22-98): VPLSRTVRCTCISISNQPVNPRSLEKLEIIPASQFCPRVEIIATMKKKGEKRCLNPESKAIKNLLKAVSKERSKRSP

IFNγ (native cytokine) = format: cell-based, human
[5] = molecular target: human IFNγ (native cytokine) (Homo sapiens, UniProt P01579); settings: in vivo
Chain of human IFNγ (native cytokine) (P01579 24-161): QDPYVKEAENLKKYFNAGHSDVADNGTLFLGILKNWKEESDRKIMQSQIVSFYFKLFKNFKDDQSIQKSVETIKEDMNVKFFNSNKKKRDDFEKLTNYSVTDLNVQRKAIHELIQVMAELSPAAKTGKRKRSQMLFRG

[6] = molecular target: T3, human IL5 (native cytokine) (Homo sapiens, UniProt P05113); test: ELISA of serum from immunized mice with native IL5; format: in vivo; settings: serum day 60
T3 sequence (P05113 20-134): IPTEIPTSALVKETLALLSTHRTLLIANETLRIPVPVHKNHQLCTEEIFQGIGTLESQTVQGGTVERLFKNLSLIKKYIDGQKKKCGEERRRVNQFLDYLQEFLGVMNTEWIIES

[7] = system: human vEGF (native cytokine); test: ELISA of serum from immunized mice with native vEGF; format: in vivo; settings: serum day 60
[8] = molecular target: T4, human IL4 (native cytokine) (Homo sapiens, UniProt P05112); test: ELISA of serum from immunized mice with native IL4; format: in vivo; settings: serum day 60
T4 sequence (P05112 25-153): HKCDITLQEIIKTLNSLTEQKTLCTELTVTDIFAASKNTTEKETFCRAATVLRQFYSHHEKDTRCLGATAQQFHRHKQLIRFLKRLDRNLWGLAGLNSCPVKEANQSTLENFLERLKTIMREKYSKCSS

[9] = molecular target: T5, human IL18 (native cytokine) (Homo sapiens, UniProt Q14116); test: ELISA of serum from immunized mice with native IL18; format: in vivo; settings: serum day 60
T5 sequence (Q14116 37-193): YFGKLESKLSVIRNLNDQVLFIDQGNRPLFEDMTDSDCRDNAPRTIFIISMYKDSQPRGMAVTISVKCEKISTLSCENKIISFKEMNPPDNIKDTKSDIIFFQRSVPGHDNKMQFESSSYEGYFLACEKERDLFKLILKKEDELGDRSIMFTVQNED

[10] = molecular target: human TNFα (native cytokine) (Homo sapiens, UniProt P01375); test: ELISA of serum from immunized mice with native TNFα; format: in vivo; settings: serum day 60
Chain of human TNFα (native cytokine) (P01375 77-233 limits assumed): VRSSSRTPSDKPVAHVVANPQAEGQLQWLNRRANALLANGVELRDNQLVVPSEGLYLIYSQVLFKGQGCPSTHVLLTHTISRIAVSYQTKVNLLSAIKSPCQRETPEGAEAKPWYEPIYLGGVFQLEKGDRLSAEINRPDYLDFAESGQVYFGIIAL

native TNFα cytokine = native TNFα cytokine (Homo sapiens, UniProt P01375); test: Neutralization of native TNFα by mouse serum, lysis of L929 cells; format: cell-based; settings: for percentage inhibition of the lysis (neutralization of the TNFα): 50 units TNFα, 24 hours
Chain of native TNFα cytokine (P01375 77-233 limits assumed): as above
Procedure: The existence of antibodies neutralizing the native cytokine was evaluated as follows: 50 units of native TNFα cytokine are preincubated with serum from mice (immunized or control) diluted 1/200th over 2 hours at 37° C. The whole is then added to L929 cells, with 25,000 cells per microwell. The lysis of the cells is evaluated after 24 hours by staining with naphthol blue black (Sigma).

## DECNMLRDLRDAFSRVKTFFQMKDQLDNC (disulfide 3-29 (inferred); also: KLH conjugate; listed as Homo sapiens) [Example 5, cyclic peptide originating from human IL10 coupled with KLH]
[1]; Average of 5 mice
  average absorbance, ELISA native IL10: 1.44
[1]; Mouse 1
  average absorbance, ELISA native IL10: 1.94
[1]; Mouse 2
  average absorbance, ELISA native IL10: 0.96
[1]; Mouse 3
  average absorbance, ELISA native IL10: 1.85
[1]; Mouse 4
  average absorbance, ELISA native IL10: 0.97
[1]; Mouse 5
  average absorbance, ELISA native IL10: 1.5

## DTILYYIGKTPKIE (also: KLH conjugate via carbodiimide; listed as Homo sapiens) [Example 11, peptide corresponding to human TGFβ2, D added, coupled with KLH]
[2]; Average of 5 mice
  average absorbance, ELISA native TGFβ2: 1.07
[2]; Mouse 1
  average absorbance, ELISA native TGFβ2: 0.95
[2]; Mouse 2
  average absorbance, ELISA native TGFβ2: 1.15
[2]; Mouse 3
  average absorbance, ELISA native TGFβ2: 0.99
[2]; Mouse 4
  average absorbance, ELISA native TGFβ2: 1.17
[2]; Mouse 5
  average absorbance, ELISA native TGFβ2: 1.08

## KKEDGIWSTDILKDQKEPKNKTFLRCE [Example 7]
[3]
  average absorbance, ELISA native IL12p40: 0.95 and 1.06 and 1.58 and 1.14 and 0.87 and 1.12

## KKKGEKRCLNPESKA [Example 9]
[4]; Average of 5 mice
  average absorbance, ELISA native IP10: 1.07
[4]; Mouse 1
  average absorbance, ELISA native IP10: 1.16
[4]; Mouse 2
  average absorbance, ELISA native IP10: 0.98
[4]; Mouse 3
  average absorbance, ELISA native IP10: 1.24
[4]; Mouse 4
  average absorbance, ELISA native IP10: 1.09
[4]; Mouse 5
  average absorbance, ELISA native IP10: 0.88

## KKYFNAGHSDVADNGTLFLGILKN [Example 4]
IFNγ (native cytokine)
  neutralization of the IFNγ, result in words: inhibitions are observed for the immunized mice
[5]
  average absorbance, ELISA native IFNγ: 1.56 and 1.05 and 0.98 and 1.80 and 1.64 and 1.41

## KLQEFLGVMNTEWI (also: KLH conjugate via glutaraldehyde; listed as Homo sapiens) [Example 10, peptide corresponding to human IL5, K added, coupled with KLH]
[6]; Average of 5 mice
  average absorbance, ELISA native IL5: 1.26
[6]; Mouse 1
  average absorbance, ELISA native IL5: 1.25
[6]; Mouse 2
  average absorbance, ELISA native IL5: 1.21
[6]; Mouse 3
  average absorbance, ELISA native IL5: 1.87
[6]; Mouse 4
  average absorbance, ELISA native IL5: 1.10
[6]; Mouse 5
  average absorbance, ELISA native IL5: 0.88

## KPHQGQHIGEMS (also: KLH conjugate via glutaraldehyde; listed as Homo sapiens) [Example 2, synthetic peptide originating from human vEGF coupled to KLH]
[7]; Average of 5 mice
  average absorbance, ELISA native vEGF: 1.19
[7]; Mouse 1
  average absorbance, ELISA native vEGF: 1.50
[7]; Mouse 2
  average absorbance, ELISA native vEGF: 1.00
[7]; Mouse 3
  average absorbance, ELISA native vEGF: 0.86
[7]; Mouse 4
  average absorbance, ELISA native vEGF: 0.98
[7]; Mouse 5
  average absorbance, ELISA native vEGF: 1.63

## KQLIRFLKRLDRNLWGLAG (also: KLH conjugate via glutaraldehyde; listed as Homo sapiens) [Example 6, peptide corresponding to human IL4 coupled with KLH]
[8]; Average of 5 mice
  average absorbance, ELISA native IL4: 1.07
[8]; Mouse 1
  average absorbance, ELISA native IL4: 1.06
[8]; Mouse 2
  average absorbance, ELISA native IL4: 1.25
[8]; Mouse 3
  average absorbance, ELISA native IL4: 0.95
[8]; Mouse 4
  average absorbance, ELISA native IL4: 0.87
[8]; Mouse 5
  average absorbance, ELISA native IL4: 1.24

## KYFGKLESKLSVIRNLNDQVLFID (also: KLH conjugate via glutaraldehyde; listed as Homo sapiens) [Example 8, peptide originating from human IL18, K added, coupled with KLH]
[9]; Average of 5 mice
  average absorbance, ELISA native IL18: 1.35
[9]; Mouse 1
  average absorbance, ELISA native IL18: 1.85
[9]; Mouse 2
  average absorbance, ELISA native IL18: 1.13
[9]; Mouse 3
  average absorbance, ELISA native IL18: 0.99
[9]; Mouse 4
  average absorbance, ELISA native IL18: 1.24
[9]; Mouse 5
  average absorbance, ELISA native IL18: 1.54

## KYQAEGQLQWLNRRANALLANGVELRDNQL (also: KLH conjugate via diazobenzidine; listed as Homo sapiens) [Example 3, synthetic peptide originating from human TNFα, K and Y added, coupled to KLH]
[10]; Average of 5 mice
  average absorbance, ELISA native TNFα: 1.31
[10]; Mouse 1
  average absorbance, ELISA native TNFα: 1.64
[10]; Mouse 2
  average absorbance, ELISA native TNFα: 1.14
[10]; Mouse 3
  average absorbance, ELISA native TNFα: 1.96
[10]; Mouse 4
  average absorbance, ELISA native TNFα: 1.02
[10]; Mouse 5
  average absorbance, ELISA native TNFα: 0.78
Native TNFα cytokine; Average of 5 mice, serum diluted 1/200th
  percentage inhibition of the lysis (neutralization of the TNFα): 61%
Native TNFα cytokine; Mouse 1, serum diluted 1/200th
  percentage inhibition of the lysis (neutralization of the TNFα): 88%
Native TNFα cytokine; Mouse 2, serum diluted 1/200th
  percentage inhibition of the lysis (neutralization of the TNFα): 12%
Native TNFα cytokine; Mouse 3, serum diluted 1/200th
  percentage inhibition of the lysis (neutralization of the TNFα): 93%
Native TNFα cytokine; Mouse 4, serum diluted 1/200th
  percentage inhibition of the lysis (neutralization of the TNFα): 36%
Native TNFα cytokine; Mouse 5, serum diluted 1/200th
  percentage inhibition of the lysis (neutralization of the TNFα): 79%
Native TNFα cytokine; serum of immunized mice vs controls
  neutralization of the TNFα, result in words: responses are observed for the immunized mice
